Target: T1, human ROR1-Fz domain with Q(261)H and I(254)V (human, UniProt Q01973 165-299)
T1 construct: domain: Fz; it is not clear whether the construct was Fz only or a longer ROR1
Experiment: antibody binding to point mutants of human ROR1, FIG. 7

T1 sequence (Q01973 165-299 I254V/Q261H): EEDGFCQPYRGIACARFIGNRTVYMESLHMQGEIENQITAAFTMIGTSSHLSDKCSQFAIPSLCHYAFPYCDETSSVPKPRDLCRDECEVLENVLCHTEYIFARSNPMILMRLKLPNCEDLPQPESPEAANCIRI

B1: Clone F anti-ROR1 antibody (whole immunoglobulin) (antibody, V domains shown)
VH: EVQLVESGGGLVQPGRSLKLSCAASGFIFSEHNMAWVRQAPKKGLEWVATISDDGRNTYYRDSMRGRFTISRENARSTLYLQLDSLRSEDTATYYCASHRYNLFDSWGQGVMVTVSS
VL: DIQMTQSPSFLSASVGDRVTINCKASQNIDRYLNWYQQKLGEAPKRLLYNTNKLQTGIPSRFSGSGSATDFTLTISSLQPEDFATYFCLQYNSLPLTFGSGTKLEIK
notes: Rat variable domains; also called clone F antibody
binding result: no binding
